Source: patent publication US10919943B2, “Mutant proteins enabling agrochemical control of plant gene expression” (The Regents of the University of California, priority 2016, dated 2021)
Changes are numbered by the printed parent chain. In names and notes the source's numbering stands.

B1: E203D: HAB1 mutant (protein, listed as Arabidopsis thaliana)
chain: MEEMTPAVAMTLSLAANTMCESSPVEITQLKNVTDAADLLSDSENQSFCNGGTECTMEDVSELEEVGEQDLLKTLSDTRSGSSNVFDEDDVLSVVEDNSAVISEGLLVVDAGSELSLSNTAMEIDNGRVLATAIIVGESSIEQVPTAEVLIAGVNQDTNTSEVVIRLPDENSNHLVKGRSVYELDCIPLWGTVSIQGNRSEMDDAFAVSPHFLKLPIKMLMGDHEGMSPSLTHLTGHFFGVYDGHGGHKVADYCRDRLHFALAEEIERIKDELCKRNTGEGRQVQWDKVFTSCFLTVDGEIEGKIGRAVVGSSDKVLEAVASETVGSTAVVALVCSSHIVVSNCGDSRAVLFRGKEAMPLSVDHKPDREDEYARIENAGGKVIQWQGARVFGVLAMSRSIGDRYLKPYVIPEPEVTFMPRSREDECLILASDGLWDVMNNQEVCEIARRRILMWHKKNGAPPLAERGKGIDPACQAAADYLSMLALQKGSKDNISIIVIDLKAQRKFKTRT
B2: H245A: HAB1 mutant (protein, UniProt Q9CAJ0 23-511, looked up, variant H245A)
Protein phosphatase 2C 16: SPVEITQLKNVTDAADLLSDSENQSFCNGGTECTMEDVSELEEVGEQDLLKTLSDTRSGSSNVFDEDDVLSVVEDNSAVISEGLLVVDAGSELSLSNTAMEIDNGRVLATAIIVGESSIEQVPTAEVLIAGVNQDTNTSEVVIRLPDENSNHLVKGRSVYELDCIPLWGTVSIQGNRSEMEDAFAVSPHFLKLPIKMLMGDHEGMSPSLTHLTGHFFGVYDGAGGHKVADYCRDRLHFALAEEIERIKDELCKRNTGEGRQVQWDKVFTSCFLTVDGEIEGKIGRAVVGSSDKVLEAVASETVGSTAVVALVCSSHIVVSNCGDSRAVLFRGKEAMPLSVDHKPDREDEYARIENAGGKVIQWQGARVFGVLAMSRSIGDRYLKPYVIPEPEVTFMPRSREDECLILASDGLWDVMNNQEVCEIARRRILMWHKKNGAPPLAERGKGIDPACQAAADYLSMLALQKGSKDNISIIVIDLKAQRKFKTRT
B3: G246A: HAB1 mutant (protein, UniProt Q9CAJ0 23-511, looked up, variant G246A)
Protein phosphatase 2C 16: B2 Protein phosphatase 2C 16 with A223H, G224A
B4: G246I: HAB1 mutant (protein, UniProt Q9CAJ0 23-511, looked up, variant G246I)
Protein phosphatase 2C 16: B2 Protein phosphatase 2C 16 with A223H, G224I
B5: G246P: HAB1 mutant (protein, UniProt Q9CAJ0 23-511, looked up, variant G246P)
Protein phosphatase 2C 16: B2 Protein phosphatase 2C 16 with A223H, G224P
B6: G246Q: HAB1 mutant (protein, UniProt Q9CAJ0 23-511, looked up, variant G246Q)
Protein phosphatase 2C 16: B2 Protein phosphatase 2C 16 with A223H, G224Q
B7: H245W: HAB1 mutant (protein, UniProt Q9CAJ0 23-511, looked up, variant H245W)
Protein phosphatase 2C 16: B2 Protein phosphatase 2C 16 with A223W
B8: G246N: HAB1 mutant (protein, UniProt Q9CAJ0 23-511, looked up, variant G246N)
Protein phosphatase 2C 16: B2 Protein phosphatase 2C 16 with A223H, G224N
B9: H245I: HAB1 mutant (protein, UniProt Q9CAJ0 23-511, looked up, variant H245I)
Protein phosphatase 2C 16: B2 Protein phosphatase 2C 16 with A223I
B10: G246K: HAB1 mutant (protein, UniProt Q9CAJ0 23-511, looked up, variant G246K)
Protein phosphatase 2C 16: B2 Protein phosphatase 2C 16 with A223H, G224K
B11: H245M: HAB1 mutant (protein, UniProt Q9CAJ0 23-511, looked up, variant H245M)
Protein phosphatase 2C 16: B2 Protein phosphatase 2C 16 with A223M
B12: H245F: HAB1 mutant (protein, UniProt Q9CAJ0 23-511, looked up, variant H245F)
Protein phosphatase 2C 16: B2 Protein phosphatase 2C 16 with A223F
B13: G246C: HAB1 mutant (protein, UniProt Q9CAJ0 23-511, looked up, variant G246C)
Protein phosphatase 2C 16: B2 Protein phosphatase 2C 16 with A223H, G224C
B14: G246L: HAB1 mutant (protein, UniProt Q9CAJ0 23-511, looked up, variant G246L)
Protein phosphatase 2C 16: B2 Protein phosphatase 2C 16 with A223H, G224L
B15: G246H: HAB1 mutant (protein, UniProt Q9CAJ0 23-511, looked up, variant G246H)
Protein phosphatase 2C 16: B2 Protein phosphatase 2C 16 with A223H, G224H
B16: H245T: HAB1 mutant (protein, UniProt Q9CAJ0 23-511, looked up, variant H245T)
Protein phosphatase 2C 16: B2 Protein phosphatase 2C 16 with A223T
B17: G246M: HAB1 mutant (protein, UniProt Q9CAJ0 23-511, looked up, variant G246M)
Protein phosphatase 2C 16: B2 Protein phosphatase 2C 16 with A223H, G224M
B18: G246R: HAB1 mutant (protein, UniProt Q9CAJ0 23-511, looked up, variant G246R)
Protein phosphatase 2C 16: B2 Protein phosphatase 2C 16 with A223H, G224R
B19: G246S: HAB1 mutant (protein, UniProt Q9CAJ0 23-511, looked up, variant G246S)
Protein phosphatase 2C 16: B2 Protein phosphatase 2C 16 with A223H, G224S
B20: G246D: HAB1 mutant (protein, UniProt Q9CAJ0 23-511, looked up, variant G246D)
Protein phosphatase 2C 16: B2 Protein phosphatase 2C 16 with A223H, G224D
B21: H245E: HAB1 mutant (protein, UniProt Q9CAJ0 23-511, looked up, variant H245E)
Protein phosphatase 2C 16: B2 Protein phosphatase 2C 16 with A223E
B22: H245K: HAB1 mutant (protein, UniProt Q9CAJ0 23-511, looked up, variant H245K)
Protein phosphatase 2C 16: B2 Protein phosphatase 2C 16 with A223K
B23: G246Y: HAB1 mutant (protein, UniProt Q9CAJ0 23-511, looked up, variant G246Y)
Protein phosphatase 2C 16: B2 Protein phosphatase 2C 16 with A223H, G224Y
B24: H245V: HAB1 mutant (protein, UniProt Q9CAJ0 23-511, looked up, variant H245V)
Protein phosphatase 2C 16: B2 Protein phosphatase 2C 16 with A223V
B25: G246F: HAB1 mutant (protein, UniProt Q9CAJ0 23-511, looked up, variant G246F)
Protein phosphatase 2C 16: B2 Protein phosphatase 2C 16 with A223H, G224F
B26: H245C: HAB1 mutant (protein, UniProt Q9CAJ0 23-511, looked up, variant H245C)
Protein phosphatase 2C 16: B2 Protein phosphatase 2C 16 with A223C
B27: H245G: HAB1 mutant (protein, UniProt Q9CAJ0 23-511, looked up, variant H245G)
Protein phosphatase 2C 16: B2 Protein phosphatase 2C 16 with A223G
B28: G246E: HAB1 mutant (protein, UniProt Q9CAJ0 23-511, looked up, variant G246E)
Protein phosphatase 2C 16: B2 Protein phosphatase 2C 16 with A223H, G224E
B29: G246V: HAB1 mutant (protein, UniProt Q9CAJ0 23-511, looked up, variant G246V)
Protein phosphatase 2C 16: B2 Protein phosphatase 2C 16 with A223H, G224V
B30: G246W: HAB1 mutant (protein, UniProt Q9CAJ0 23-511, looked up, variant G246W)
Protein phosphatase 2C 16: B2 Protein phosphatase 2C 16 with A223H, G224W
B31: H245D: HAB1 mutant (protein, UniProt Q9CAJ0 23-511, looked up, variant H245D)
Protein phosphatase 2C 16: B2 Protein phosphatase 2C 16 with A223D
B32: H245Q: HAB1 mutant (protein, UniProt Q9CAJ0 23-511, looked up, variant H245Q)
Protein phosphatase 2C 16: B2 Protein phosphatase 2C 16 with A223Q
B33: H245S: HAB1 mutant (protein, UniProt Q9CAJ0 23-511, looked up, variant H245S)
Protein phosphatase 2C 16: B2 Protein phosphatase 2C 16 with A223S
B34: H245L: HAB1 mutant (protein, UniProt Q9CAJ0 23-511, looked up, variant H245L)
Protein phosphatase 2C 16: B2 Protein phosphatase 2C 16 with A223L
B35: H245P: HAB1 mutant (protein, UniProt Q9CAJ0 23-511, looked up, variant H245P)
Protein phosphatase 2C 16: B2 Protein phosphatase 2C 16 with A223P
B36: H245R: HAB1 mutant (protein, UniProt Q9CAJ0 23-511, looked up, variant H245R)
Protein phosphatase 2C 16: B2 Protein phosphatase 2C 16 with A223R
B37: G246T: HAB1 mutant (protein, UniProt Q9CAJ0 23-511, looked up, variant G246T)
Protein phosphatase 2C 16: B2 Protein phosphatase 2C 16 with A223H, G224T
B38: H245Y: HAB1 mutant (protein, UniProt Q9CAJ0 23-511, looked up, variant H245Y)
Protein phosphatase 2C 16: B2 Protein phosphatase 2C 16 with A223Y
B39: H245N: HAB1 mutant (protein, UniProt Q9CAJ0 23-511, looked up, variant H245N)
Protein phosphatase 2C 16: B2 Protein phosphatase 2C 16 with A223N

Target: T1, PYR1 (Arabidopsis thaliana, UniProt O49686)
T1 construct: expressed in transfected cells; host or cells: S. cerevisiae strain Y190
T1 sequence (O49686 1-191): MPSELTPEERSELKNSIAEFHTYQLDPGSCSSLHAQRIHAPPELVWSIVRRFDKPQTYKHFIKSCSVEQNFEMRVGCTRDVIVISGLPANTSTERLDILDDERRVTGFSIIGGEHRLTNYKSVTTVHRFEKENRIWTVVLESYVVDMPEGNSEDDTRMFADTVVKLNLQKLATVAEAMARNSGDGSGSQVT
Test: Yeast two hybrid of pACT-HAB1 site saturation mutants with pBD-PYR1 on 10 μM ABA, β-galactosidase staining
Type: cell-based
Set-up: key: x: Mutations in HAB1 that disrupt HAB1 interaction with PYR1
Conditions: S. cerevisiae Y190, 10 μM ABA; dead = lack of detectable staining in comparison to wild type control
Summary of the method: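 HAB1 (lacking three N-terminal residues) site-saturation mutants in pACT were co-transformed with pBD-PYR1 into S. cerevisiae Y190 and spotted on SD (-Leu,-Trp) with 10 μM ABA. After 2 days at 30 °C, chloroform-lysed colonies were stained for β-galactosidase; "dead" means no detectable staining versus wild-type pair.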

Row | Molecule | Mutations in HAB1 that disrupt HAB1 interaction with PYR1
1 | B1 | x
2 | B2 | x
3 | B3 | x
4 | B4 | x
5 | B5 | x
6 | B6 | x
7 | B7 | x
8 | B8 | x
9 | B9 | x
10 | B10 | x
11 | B11 | x
12 | B12 | x
13 | B13 | x
14 | B14 | x
15 | B15 | x
16 | B16 | x
17 | B17 | x
18 | B18 | x
19 | B19 | x
20 | B20 | x

Row | Molecule | Mutations in HAB1 that disrupt HAB1 interaction with PYR1
21 | B21 | x
22 | B22 | x
23 | B23 | x
24 | B24 | x
25 | B25 | x
26 | B26 | x
27 | B27 | x
28 | B28 | x
29 | B29 | x
30 | B30 | x
31 | B31 | x
32 | B32 | x
33 | B33 | x
34 | B34 | x
35 | B35 | x
36 | B36 | x
37 | B37 | x
38 | B38 | x
39 | B39 | x
